We go through five molecules from patent US20140056903A1 (Regeneron, published 2014).

For test [1], the target named is T1, human GFRα3 expressed with a C-terminal myc-myc-hexahistidine tag (human, UniProt O60609 32-374, biotinylated (sites not given) in ELISA format 2 and in the Octet cross-competition; not in SPR).
T1 construct: also called hGFRα3-mmh; hGFRα3-mmH
Kind of test: Octet cross-competition; biotin-hGFRα3-mmH pre-saturated with first antibody H4H2296S. As for the experimental part: A cross-competition assay was conducted to assess the ability of select antibodies to compete with one another for binding to human GFRα3 using an Octet RED384 biosensor (Fortebio Inc.). The entire experiment was performed at 25° C. with the flow rate of 1000 rpm in Octet HBST buffer (0.01 M HEPES pH7.4, 0.15M NaCl, 3 mM EDTA, 0.05% v/v Surfactant P20, 0.1 mg/mL BSA). To assess whether 2 antibodies were able to compete with one another for binding to their respective epitopes on biotinylated recombinant human GFRα3 expressed with a C-terminal myc-myc-hexahistidine tag (biotin-hGFRα3-mmH; SEQ ID:370), around ˜1.2 nm of biotin-hGFRα3-mmH was first captured onto streptavidin-coated Octet sensor tips (Fortebio Inc, #18-5019) by submerging the tips for 1 minute into a 10 μg/mL solution of biotin-hGFRα3-mmH. The antigen coated sensor tips were then placed into wells containing 25 μg/mL solution of a first anti-GFRα3 monoclonal antibody for 4 minutes to saturate the biotin-hGFRα3-mmH surface. The sensor tips were then subsequently dipped into wells containing 25 μ/mL solution of a second anti-GFRα3 monoclonal antibody. The sensor tips were washed in Octet HBST buffer in between every step of the experiment. The real-time binding response was monitored during the course of the experiment and the binding response at the end of every step was recorded as shown in FIG. 9. The response of mAb-2 binding to biotin-hGFRα3-mmH pre-complexed with the first antibody was compared and competitive/non-competitive behavior of different anti-GFRα3 monoclonal antibodies was determined.

Test [2] has as its target T2, human GFRα3 expressed with a C-terminal mFc tag (human).
T2 construct: also called hGFRα3-mFc
T2 chain: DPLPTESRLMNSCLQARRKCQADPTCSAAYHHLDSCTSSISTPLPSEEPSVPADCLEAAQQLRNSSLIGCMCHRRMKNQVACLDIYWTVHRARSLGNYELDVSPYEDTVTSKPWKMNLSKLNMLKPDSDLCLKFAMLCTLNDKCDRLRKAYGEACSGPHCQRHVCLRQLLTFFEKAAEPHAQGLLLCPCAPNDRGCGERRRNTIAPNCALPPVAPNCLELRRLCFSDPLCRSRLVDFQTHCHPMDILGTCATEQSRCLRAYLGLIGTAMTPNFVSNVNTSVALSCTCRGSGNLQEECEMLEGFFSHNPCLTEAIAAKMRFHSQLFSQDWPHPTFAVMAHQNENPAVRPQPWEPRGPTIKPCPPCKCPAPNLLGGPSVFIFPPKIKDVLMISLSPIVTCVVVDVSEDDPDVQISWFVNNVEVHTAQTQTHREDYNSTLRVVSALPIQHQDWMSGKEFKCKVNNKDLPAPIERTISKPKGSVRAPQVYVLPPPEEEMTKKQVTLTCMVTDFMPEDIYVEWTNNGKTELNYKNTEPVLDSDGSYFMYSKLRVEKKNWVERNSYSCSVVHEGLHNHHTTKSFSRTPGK
Kind of test: SPR, Ab captured, 37C. In outline:
(§1)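 Captured antibodies on a CM5 sensor were exposed to GFRα3 in HBS-EP or PBS/0.05% P20. The mmh-tagged proteins ran at 200–7.4 nM and the hFc-tagged protein at 100–3.7 nM. Rate constants were obtained by a 1:1 fit.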
In general terms: Surface plasmon resonance follows binding to a sensor surface in real time, without labels.

Test [3] addresses T3, monkey GFRα3 expressed with a C-terminal myc-myc-hexahistidine tag (monkey (Mf), UniProt O60609 32-374 (human entry), limits assumed).
T3 construct: also called MfGFRα3-mmh; MfGFRα3-mmH
T3 chain: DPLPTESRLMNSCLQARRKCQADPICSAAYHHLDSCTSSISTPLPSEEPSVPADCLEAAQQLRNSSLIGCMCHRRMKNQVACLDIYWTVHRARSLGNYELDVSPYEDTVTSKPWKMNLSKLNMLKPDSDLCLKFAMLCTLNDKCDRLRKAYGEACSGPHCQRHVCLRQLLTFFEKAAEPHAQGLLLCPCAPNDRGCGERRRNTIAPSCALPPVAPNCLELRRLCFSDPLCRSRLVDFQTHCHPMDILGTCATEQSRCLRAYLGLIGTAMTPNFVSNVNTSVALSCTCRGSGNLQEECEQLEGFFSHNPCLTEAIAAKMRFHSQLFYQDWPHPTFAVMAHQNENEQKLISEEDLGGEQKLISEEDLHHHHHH
Kind of test: SPR, Ab captured, 37C. An outline of the steps: as §1

Test [4] addresses T1, human GFRα3 expressed with a C-terminal …. Description: SPR, Ab captured, 37C. An outline of the steps: as §1

B1: H4H2352S (antibody, human IgG4, V domains shown)
VH: EVQLVQSGAEVKKPGASVKVSCKASGYTFTNYGITWVRQAPGQGLEWMGWISAYNGNTGYAQKFQGRVTMTTDTSTSTAYMELRSLRSDDTAVYYCAREDYDFWRAFDIWGQGTMVTVSS
VL: EIVLTQSPGTLSLSPGERATLSCRASQSVSSTYLAWLQQKPGQAPRLLIYGASSRATGIPDRFSGSGSGTDFTLTINRLEPEDFAVYYCQQYAYSPYTFGQGTKLEIK
notes: human IgG4 Fc (H4H); also called H4H2352S-1
Take B1: the “binding response of second antibody (nm)” value in test [1] came to 2.01 nm. In test [2], this molecule registered a Kd of 0.0132 nM, a koff of 3e-05 s⁻¹, a kon of 2.28e+06 M⁻¹ s⁻¹ and a t1/2 of 385 min. In test [3], this molecule returned a Kd of 0.117 nM, a koff of 6.53e-05 s⁻¹, a kon of 557000 M⁻¹ s⁻¹ and a t1/2 of 177 min. In test [4], this molecule had a Kd of 0.118 nM, a koff of 0.000139 s⁻¹, a kon of 1.18e+06 M⁻¹ s⁻¹ and a t1/2 of 83 min.

B2: H4H2357S (antibody, human IgG4, V domains shown)
VH: EVQLVESGGGLVQPGGSLRLSCAASTFTFSSYAMTWVRQAPGKGLEWVSSISGSGDSTYYADSVKGRFTISRDNSKNTLFLQMNSLRAEDTAVYYCAKKDGPGRYYVRYGMDVWGQGTTVTVSS
VL: DIQMTQSPSSVSASVGDRVTITCRASQGISSWLAWYQQKPGKAPKLLIYTTSSLQSGVPSRFSGSGSGTDFTLTISSLQPEDFATYYCQQANSFPLTFGGGTKVDIK
notes: human IgG4 Fc (H4H)
Take B2: the “binding response of second antibody (nm)” value in test [1] turned out to be 0.06 nm. Moreover, in test [2], the Kd was determined as 0.0793 nM, the koff was 9.4e-05 s⁻¹, the kon was 1.19e+06 M⁻¹ s⁻¹ and the t1/2 came out at 123 min. Besides, in test [3], the Kd turned out to be 7.86 nM, the koff was found to be 0.00135 s⁻¹, the kon came out at 172000 M⁻¹ s⁻¹ and the t1/2 is 9 min. Moreover, in test [4], the affinity, expressed as Kd, was 7.12 nM; the koff worked out at 0.0021 s⁻¹; the kon was determined as 295000 M⁻¹ s⁻¹; the t1/2 turned out to be 6 min.

B3: H4H2355S (antibody, human IgG4, V domains shown)
VH: EVQLVESGGGLVQPGGSLRLSCAASGFTFSSYAMSWVRQVPGKGLEWVSAISGSGDNTYNAESVKGRFTISRDNSKNMLYLQMNSLRAEDTAVYYCAKTKFSSSLLFDYWGQGTLVTVSS
VL: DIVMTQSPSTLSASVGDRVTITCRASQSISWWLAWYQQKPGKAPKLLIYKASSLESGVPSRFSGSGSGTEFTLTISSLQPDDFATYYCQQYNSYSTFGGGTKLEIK
notes: human IgG4 Fc (H4H)
With B3, the “binding response of second antibody (nm)” value in test [1] amounted to 0.02 nm. In test [2], this molecule registered a Kd of 0.031 nM, a koff of 3.39e-05 s⁻¹, a kon of 1.1e+06 M⁻¹ s⁻¹ and a t1/2 of 341 min. In test [3], this molecule yielded a Kd of 5.29 nM, a koff of 0.000913 s⁻¹, a kon of 173000 M⁻¹ s⁻¹ and a t1/2 of 13 min. Further, in test [4], binding was characterised by a dissociation constant (Kd) of 4.37 nM, the koff is 0.00123 s⁻¹, the kon is 281000 M⁻¹ s⁻¹ and the t1/2 came out at 9 min.

B4: H4H2350P (antibody, human IgG4, V domains shown)
VH: QVQLQESGPGLVKPSETLSLTCTVSGGSISTYYWSWFRQPPGKGLEWIGYIYYSGSTNHNPSLKSRVTISVDTSKNQFSLKLRSVTAADTAVYYCARVGPVGWGSWGNFDYWGQGTLVTVSS
VL: DIQLTQSPSFLSASVGDRVTITCWASQGISSYLAWSQQKPGKAPKLLIYAASTLQSGVPSRFSGSGSGTEFTLTISSLQPEDFATYYCQQLNSYPWTFGQGTKVEIK
notes: human IgG4 Fc (H4H)
B4: the “binding response of second antibody (nm)” value in test [1] is 1.27 nm. Moreover, in test [2], the Kd amounted to 0.0492 nM, the koff worked out at 0.000126 s⁻¹, the kon came to 2.56e+06 M⁻¹ s⁻¹ and the t1/2 worked out at 92 min. In test [3], the Kd is 12 nM, the koff was determined as 0.000896 s⁻¹, the kon came out at 74800 M⁻¹ s⁻¹ and the t1/2 was determined as 13 min. In test [4], the Kd was 9.61 nM, the koff was 0.00128 s⁻¹, the kon came out at 134000 M⁻¹ s⁻¹ and the t1/2 was found to be 9 min.

B5: H4H2292S (antibody, human IgG4, V domains shown)
VH: EVQLVESGGGVVQPGRSLRLSCAASGFTFSSYGMHWVRQAPGKGLEWVSFIWYDGSNKYYADSVKGRFTISRDNSKNTLYLQMNSLTAEDTAVYYCARRGILTGTTAFDIWGQGTMVTVSS
VL: DIQMTQSPSSLSASVGDRVTITCRASQSISSYLNWYQQKPGKAPKLLIYAASSLQSGVPSRFSGSGSGTDFTLTIRSLIPEDFATYYCQQTYNTPFTFGPGTKVEIK
notes: human IgG4 Fc (H4H)
Consider B5, for which the “binding response of second antibody (nm)” value in test [1] is 1.87 nm. In test [2], this molecule yielded a Kd of 0.0432 nM, a koff of 2.57e-05 s⁻¹, a kon of 596000 M⁻¹ s⁻¹ and a t1/2 of 449 min. Further, in test [3], the Kd was 2.18 nM, the koff is 0.000195 s⁻¹, the kon amounted to 89500 M⁻¹ s⁻¹ and the t1/2 was 59 min. In addition, in test [4], the Kd was 1.94 nM, the koff was found to be 0.000249 s⁻¹, the kon was found to be 128000 M⁻¹ s⁻¹ and the t1/2 came out at 46 min.

As usually defined, the Kd is the constant that tells how readily two partners part at equilibrium. One may read the koff as the rate constant with which the complex falls apart. By kon is commonly meant the rate constant with which the complex forms.
